We go through 6 molecules from patent US20130005646A1 (Novo Nordisk, published 2013).

Starred links: 1 amine or outer side, 2 acyl side, 3 side chain; linkers in the order of their positions; H or OH if unused. Positions of bridges follow the written chain, without caps; N, C: chain ends. *: point of attachment. C20 diacid = O=C(O)CCCCCCCCCCCCCCCCCCC(=O)*; C18 diacid = O=C(O)CCCCCCCCCCCCCCCCC(=O)*; γGlu = O=C(O)[C@H](CCC(=O)[*:2])N[*:1]

In assay [1] the target is T1, human calcitonin (a) receptor (human, UniProt P30988 25-474).
T1 sequence (looked up): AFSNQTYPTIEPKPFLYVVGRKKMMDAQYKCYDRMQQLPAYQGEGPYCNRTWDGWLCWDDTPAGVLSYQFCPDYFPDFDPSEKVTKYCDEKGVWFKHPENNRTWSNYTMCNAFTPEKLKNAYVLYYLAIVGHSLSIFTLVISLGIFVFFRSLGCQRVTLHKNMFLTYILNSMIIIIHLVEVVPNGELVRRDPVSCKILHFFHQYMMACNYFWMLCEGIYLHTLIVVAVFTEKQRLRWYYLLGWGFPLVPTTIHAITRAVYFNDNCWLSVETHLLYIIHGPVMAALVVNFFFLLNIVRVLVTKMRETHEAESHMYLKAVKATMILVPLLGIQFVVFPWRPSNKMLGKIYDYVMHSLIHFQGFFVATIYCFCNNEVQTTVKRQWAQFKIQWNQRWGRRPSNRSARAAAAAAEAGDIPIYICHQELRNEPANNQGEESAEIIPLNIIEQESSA
As to the kind of experiment: cell-based or functional assay.

The target of assay [2] is T2, human amylin 3(a) receptor (human calcitonin receptor + RAMP-3) (human, UniProt P30988 25-474; O60896 24-148).
T2 sequence (looked up) 1: T1 sequence (looked up)
T2 sequence (looked up) 2: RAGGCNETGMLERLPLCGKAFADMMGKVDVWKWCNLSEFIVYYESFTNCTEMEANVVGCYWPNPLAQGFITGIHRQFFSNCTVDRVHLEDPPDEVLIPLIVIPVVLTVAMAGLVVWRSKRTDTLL
As to the kind of experiment: cell-based or functional assay.

B1: N-alpha-[(S)-4-Carboxy-4-(19-carboxynonadecanoylamino)butyryl]-His-His-[His1,Glu14,His17,Ser21,Glu35]-pramlintide (peptide)
peptide: {C20 diacid-γGlu}-HHHCNTATCATQRLAEFLHHSSSNFGPILPPTNVGSETY-NH2
modifications: disulfide 4-9
SMILES: CC[C@H](C)[C@H](NC(=O)[C@@H]1CCCN1C(=O)CNC(=O)[C@H](Cc1ccccc1)NC(=O)[C@H](CC(N)=O)NC(=O)[C@H](CO)NC(=O)[C@H](CO)NC(=O)[C@H](CO)NC(=O)[C@H](Cc1c[nH]cn1)NC(=O)[C@H](Cc1c[nH]cn1)NC(=O)[C@H](CC(C)C)NC(=O)[C@H](Cc1ccccc1)NC(=O)[C@H](CCC(=O)O)NC(=O)[C@H](C)NC(=O)[C@H](CC(C)C)NC(=O)[C@H](CCCNC(=N)N)NC(=O)[C@H](CCC(N)=O)NC(=O)[C@@H](NC(=O)[C@H](C)NC(=O)[C@@H]1CSSC[C@H](NC(=O)[C@H](Cc2c[nH]cn2)NC(=O)[C@H](Cc2c[nH]cn2)NC(=O)[C@H](Cc2c[nH]cn2)NC(=O)CC[C@H](NC(=O)CCCCCCCCCCCCCCCCCCC(=O)O)C(=O)O)C(=O)N[C@@H](CC(N)=O)C(=O)N[C@@H]([C@@H](C)O)C(=O)N[C@@H](C)C(=O)N[C@@H]([C@@H](C)O)C(=O)N1)[C@@H](C)O)C(=O)N[C@@H](CC(C)C)C(=O)N1CCC[C@H]1C(=O)N1CCC[C@H]1C(=O)N[C@H](C(=O)N[C@@H](CC(N)=O)C(=O)N[C@H](C(=O)NCC(=O)N[C@@H](CO)C(=O)N[C@@H](CCC(=O)O)C(=O)N[C@H](C(=O)N[C@@H](Cc1ccc(O)cc1)C(N)=O)[C@@H](C)O)C(C)C)[C@@H](C)O
On to B1, for which, in assay [1], the “CTa receptor human EC50” value worked out at 0.632 nM. Also, in assay [2], the “Amylin receptor human EC50” value amounted to 0.558 nM.

B2: N-alpha-[(S)-4-Carboxy-4-(19-carboxynonadecanoylamino)butyryl]-[Glu14,His17,Ala25,Pro26,Ser28,Ser29,His35]-pramlintide (peptide)
peptide: {C20 diacid-γGlu}-KCNTATCATQRLAEFLHHSSNNFGAPLSSTNVGSHTY-NH2
modifications: disulfide 2-7
SMILES: CC(C)C[C@H](NC(=O)[C@H](CCCNC(=N)N)NC(=O)[C@H](CCC(N)=O)NC(=O)[C@@H](NC(=O)[C@H](C)NC(=O)[C@@H]1CSSC[C@H](NC(=O)[C@H](CCCCN)NC(=O)CC[C@H](NC(=O)CCCCCCCCCCCCCCCCCCC(=O)O)C(=O)O)C(=O)N[C@@H](CC(N)=O)C(=O)N[C@@H]([C@@H](C)O)C(=O)N[C@@H](C)C(=O)N[C@@H]([C@@H](C)O)C(=O)N1)[C@@H](C)O)C(=O)N[C@@H](C)C(=O)N[C@@H](CCC(=O)O)C(=O)N[C@@H](Cc1ccccc1)C(=O)N[C@@H](CC(C)C)C(=O)N[C@@H](Cc1c[nH]cn1)C(=O)N[C@@H](Cc1c[nH]cn1)C(=O)N[C@@H](CO)C(=O)N[C@@H](CO)C(=O)N[C@@H](CC(N)=O)C(=O)N[C@@H](CC(N)=O)C(=O)N[C@@H](Cc1ccccc1)C(=O)NCC(=O)N[C@@H](C)C(=O)N1CCC[C@H]1C(=O)N[C@@H](CC(C)C)C(=O)N[C@@H](CO)C(=O)N[C@@H](CO)C(=O)N[C@H](C(=O)N[C@@H](CC(N)=O)C(=O)N[C@H](C(=O)NCC(=O)N[C@@H](CO)C(=O)N[C@@H](Cc1c[nH]cn1)C(=O)N[C@H](C(=O)N[C@@H](Cc1ccc(O)cc1)C(N)=O)[C@@H](C)O)C(C)C)[C@@H](C)O
Turning to B2, in assay [1], the “CTa receptor human EC50” value was determined as 0.0945 nM. In assay [2], the “Amylin receptor human EC50” value worked out at 0.153 nM.

B3: N-alpha-[(S)-4-Carboxy-4-(19-carboxynonadecanoylamino)butyryl]-His-His-[Glu14,Arg17,His35]-pramlintide (peptide)
peptide: {C20 diacid-γGlu}-HHKCNTATCATQRLAEFLRHSSNNFGPILPPTNVGSHTY-NH2
modifications: disulfide 4-9
SMILES: CC[C@H](C)[C@H](NC(=O)[C@@H]1CCCN1C(=O)CNC(=O)[C@H](Cc1ccccc1)NC(=O)[C@H](CC(N)=O)NC(=O)[C@H](CC(N)=O)NC(=O)[C@H](CO)NC(=O)[C@H](CO)NC(=O)[C@H](Cc1c[nH]cn1)NC(=O)[C@H](CCCNC(=N)N)NC(=O)[C@H](CC(C)C)NC(=O)[C@H](Cc1ccccc1)NC(=O)[C@H](CCC(=O)O)NC(=O)[C@H](C)NC(=O)[C@H](CC(C)C)NC(=O)[C@H](CCCNC(=N)N)NC(=O)[C@H](CCC(N)=O)NC(=O)[C@@H](NC(=O)[C@H](C)NC(=O)[C@@H]1CSSC[C@H](NC(=O)[C@H](CCCCN)NC(=O)[C@H](Cc2c[nH]cn2)NC(=O)[C@H](Cc2c[nH]cn2)NC(=O)CC[C@H](NC(=O)CCCCCCCCCCCCCCCCCCC(=O)O)C(=O)O)C(=O)N[C@@H](CC(N)=O)C(=O)N[C@@H]([C@@H](C)O)C(=O)N[C@@H](C)C(=O)N[C@@H]([C@@H](C)O)C(=O)N1)[C@@H](C)O)C(=O)N[C@@H](CC(C)C)C(=O)N1CCC[C@H]1C(=O)N1CCC[C@H]1C(=O)N[C@H](C(=O)N[C@@H](CC(N)=O)C(=O)N[C@H](C(=O)NCC(=O)N[C@@H](CO)C(=O)N[C@@H](Cc1c[nH]cn1)C(=O)N[C@H](C(=O)N[C@@H](Cc1ccc(O)cc1)C(N)=O)[C@@H](C)O)C(C)C)[C@@H](C)O
For the molecule B3, in assay [1], the “CTa receptor human EC50” value was 0.615 nM. In addition, the “Amylin receptor human EC50” value in assay [2] amounted to 0.101 nM.

B4: N-alpha-[(S)-4-Carboxy-4-(19-carboxynonadecanoylamino)butyryl]-His-His-[Glu14,His17,His35]-pramlintide (peptide)
peptide: {C20 diacid-γGlu}-HHKCNTATCATQRLAEFLHHSSNNFGPILPPTNVGSHTY-NH2
modifications: disulfide 4-9
SMILES: CC[C@H](C)[C@H](NC(=O)[C@@H]1CCCN1C(=O)CNC(=O)[C@H](Cc1ccccc1)NC(=O)[C@H](CC(N)=O)NC(=O)[C@H](CC(N)=O)NC(=O)[C@H](CO)NC(=O)[C@H](CO)NC(=O)[C@H](Cc1c[nH]cn1)NC(=O)[C@H](Cc1c[nH]cn1)NC(=O)[C@H](CC(C)C)NC(=O)[C@H](Cc1ccccc1)NC(=O)[C@H](CCC(=O)O)NC(=O)[C@H](C)NC(=O)[C@H](CC(C)C)NC(=O)[C@H](CCCNC(=N)N)NC(=O)[C@H](CCC(N)=O)NC(=O)[C@@H](NC(=O)[C@H](C)NC(=O)[C@@H]1CSSC[C@H](NC(=O)[C@H](CCCCN)NC(=O)[C@H](Cc2c[nH]cn2)NC(=O)[C@H](Cc2c[nH]cn2)NC(=O)CC[C@H](NC(=O)CCCCCCCCCCCCCCCCCCC(=O)O)C(=O)O)C(=O)N[C@@H](CC(N)=O)C(=O)N[C@@H]([C@@H](C)O)C(=O)N[C@@H](C)C(=O)N[C@@H]([C@@H](C)O)C(=O)N1)[C@@H](C)O)C(=O)N[C@@H](CC(C)C)C(=O)N1CCC[C@H]1C(=O)N1CCC[C@H]1C(=O)N[C@H](C(=O)N[C@@H](CC(N)=O)C(=O)N[C@H](C(=O)NCC(=O)N[C@@H](CO)C(=O)N[C@@H](Cc1c[nH]cn1)C(=O)N[C@H](C(=O)N[C@@H](Cc1ccc(O)cc1)C(N)=O)[C@@H](C)O)C(C)C)[C@@H](C)O
Turning to B4, in assay [1], the “CTa receptor human EC50” value is 0.115 nM. Further, in assay [2], the “Amylin receptor human EC50” value amounted to 0.0965 nM.

B5: N-alpha-[(S)-4-Carboxy-4-(19-carboxynonadecanoylamino)butyryl]-His-[Glu14,Arg17,His35]-pramlintide (peptide)
peptide: {C20 diacid-γGlu}-HKCNTATCATQRLAEFLRHSSNNFGPILPPTNVGSHTY-NH2
modifications: disulfide 3-8
SMILES: CC[C@H](C)[C@H](NC(=O)[C@@H]1CCCN1C(=O)CNC(=O)[C@H](Cc1ccccc1)NC(=O)[C@H](CC(N)=O)NC(=O)[C@H](CC(N)=O)NC(=O)[C@H](CO)NC(=O)[C@H](CO)NC(=O)[C@H](Cc1c[nH]cn1)NC(=O)[C@H](CCCNC(=N)N)NC(=O)[C@H](CC(C)C)NC(=O)[C@H](Cc1ccccc1)NC(=O)[C@H](CCC(=O)O)NC(=O)[C@H](C)NC(=O)[C@H](CC(C)C)NC(=O)[C@H](CCCNC(=N)N)NC(=O)[C@H](CCC(N)=O)NC(=O)[C@@H](NC(=O)[C@H](C)NC(=O)[C@@H]1CSSC[C@H](NC(=O)[C@H](CCCCN)NC(=O)[C@H](Cc2c[nH]cn2)NC(=O)CC[C@H](NC(=O)CCCCCCCCCCCCCCCCCCC(=O)O)C(=O)O)C(=O)N[C@@H](CC(N)=O)C(=O)N[C@@H]([C@@H](C)O)C(=O)N[C@@H](C)C(=O)N[C@@H]([C@@H](C)O)C(=O)N1)[C@@H](C)O)C(=O)N[C@@H](CC(C)C)C(=O)N1CCC[C@H]1C(=O)N1CCC[C@H]1C(=O)N[C@H](C(=O)N[C@@H](CC(N)=O)C(=O)N[C@H](C(=O)NCC(=O)N[C@@H](CO)C(=O)N[C@@H](Cc1c[nH]cn1)C(=O)N[C@H](C(=O)N[C@@H](Cc1ccc(O)cc1)C(N)=O)[C@@H](C)O)C(C)C)[C@@H](C)O
Turning to B5, the “CTa receptor human EC50” value in assay [1] came to 0.43 nM. Besides, the “Amylin receptor human EC50” value in assay [2] was determined as 0.0935 nM.

B6: N-alpha-[(S)-4-Carboxy-4-(17-carboxyheptadecanoylamino)butyryl]-His-[Glu14,His17,His35]-pramlintide (peptide)
peptide: {C18 diacid-γGlu}-HKCNTATCATQRLAEFLHHSSNNFGPILPPTNVGSHTY-NH2
modifications: disulfide 3-8
SMILES: CC[C@H](C)[C@H](NC(=O)[C@@H]1CCCN1C(=O)CNC(=O)[C@H](Cc1ccccc1)NC(=O)[C@H](CC(N)=O)NC(=O)[C@H](CC(N)=O)NC(=O)[C@H](CO)NC(=O)[C@H](CO)NC(=O)[C@H](Cc1c[nH]cn1)NC(=O)[C@H](Cc1c[nH]cn1)NC(=O)[C@H](CC(C)C)NC(=O)[C@H](Cc1ccccc1)NC(=O)[C@H](CCC(=O)O)NC(=O)[C@H](C)NC(=O)[C@H](CC(C)C)NC(=O)[C@H](CCCNC(=N)N)NC(=O)[C@H](CCC(N)=O)NC(=O)[C@@H](NC(=O)[C@H](C)NC(=O)[C@@H]1CSSC[C@H](NC(=O)[C@H](CCCCN)NC(=O)[C@H](Cc2c[nH]cn2)NC(=O)CC[C@H](NC(=O)CCCCCCCCCCCCCCCCC(=O)O)C(=O)O)C(=O)N[C@@H](CC(N)=O)C(=O)N[C@@H]([C@@H](C)O)C(=O)N[C@@H](C)C(=O)N[C@@H]([C@@H](C)O)C(=O)N1)[C@@H](C)O)C(=O)N[C@@H](CC(C)C)C(=O)N1CCC[C@H]1C(=O)N1CCC[C@H]1C(=O)N[C@H](C(=O)N[C@@H](CC(N)=O)C(=O)N[C@H](C(=O)NCC(=O)N[C@@H](CO)C(=O)N[C@@H](Cc1c[nH]cn1)C(=O)N[C@H](C(=O)N[C@@H](Cc1ccc(O)cc1)C(N)=O)[C@@H](C)O)C(C)C)[C@@H](C)O
For the molecule B6, in assay [1], the “CTa receptor human EC50” value came out at 0.099 nM. Further, in assay [2], the “Amylin receptor human EC50” value is 0.0585 nM.
